B1: Low-density lipoprotein receptor-related protein 6 (Homo sapiens), O75581 (parent)
chain: MGAVLRSLLACSFCVLLRAAPLLLYANRRDLRLVDATNGKENATIVVGGLEDAAAVDFVFSHGLIYWSDVSEEAIKRTEFNKTESVQNVVVSGLLSPDGLACDWLGEKLYWTDSETNRIEVSNLDGSLRKVLFWQELDQPRAIALDPSSGFMYWTDWGEVPKIERAGMDGSSRFIIINSEIYWPNGLTLDYEEQKLYWADAKLNFIHKSNLDGTNRQAVVKGSLPHPFALTLFEDILYWTDWSTHSILACNKYTGEGLREIHSDIFSPMDIHAFSQQRQPNATNPCGIDNGGCSHLCLMSPVKPFYQCACPTGVKLLENGKTCKDGATELLLLARRTDLRRISLDTPDFTDIVLQLEDIRHAIAIDYDPVEGYIYWTDDEVRAIRRSFIDGSGSQFVVTAQIAHPDGIAVDWVARNLYWTDTGTDRIEVTRLNGTMRKILISEDLEEPRAIVLDPMVGYMYWTDWGEIPKIERAALDGSDRVVLVNTSLGWPNGLALDYDEGKIYWGDAKTDKIEVMNTDGTGRRVLVEDKIPHIFGFTLLGDYVYWTDWQRRSIERVHKRSAEREVIIDQLPDLMGLKATNVHRVIGSNPCAEENGGCSHLCLYRPQGLRCACPIGFELISDMKTCIVPEAFLLFSRRADIRRISLETNNNNVAIPLTGVKEASALDFDVTDNRIYWTDISLKTISRAFMNGSALEHVVEFGLDYPEGMAVDWLGKNLYWADTGTNRIEVSKLDGQHRQVLVWKDLDSPRALALDPAEGFMYWTEWGGKPKIDRAAMDGSERTTLVPNVGRANGLTIDYAKRRLYWTDLDTNLIESSNMLGLNREVIADDLPHPFGLTQYQDYIYWTDWSRRSIERANKTSGQNRTIIQGHLDYVMDILVFHSSRQSGWNECASSNGHCSHLCLAVPVGGFVCGCPAHYSLNADNRTCSAPTTFLLFSQKSAINRMVIDEQQSPDIILPIHSLRNVRAIDYDPLDKQLYWIDSRQNMIRKAQEDGSQGFTVVVSSVPSQNLEIQPYDLSIDIYSRYIYWTCEATNVINVTRLDGRSVGVVLKGEQDRPRAVVVNPEKGYMYFTNLQERSPKIERAALDGTEREVLFFSGLSKPIALALDSRLGKLFWADSDLRRIESSDLSGANRIVLEDSNILQPVGLTVFENWLYWIDKQQQMIEKIDMTGREGRTKVQARIAQLSDIHAVKELNLQEYRQHPCAQDNGGCSHICLVKGDGTTRCSCPMHLVLLQDELSCGEPPTCSPQQFTCFTGEIDCIPVAWRCDGFTECEDHSDELNCPVCSESQFQCASGQCIDGALRCNGDANCQDKSDEKNCEVLCLIDQFRCANGQCIGKHKKCDHNVDCSDKSDELDCYPTEEPAPQATNTVGSVIGVIVTIFVSGTVYFICQRMLCPRMKGDGETMTNDYVVHGPASVPLGYVPHPSSLSGSLPGMSRGKSMISSLSIMGGSSGPPYDRAHVTGASSSSSSSTKGTYFPAILNPPPSPATERSHYTMEFGYSSNSPSTHRSYSYRPYSYRHFAPPTTPCSTDVCDSDYAPSRRMTSVATAKGYTSDLNYDSEPVPPPPTPRSQYLSAEENYESCPPSPYTERSYSHHLYPPPPSPCTDSS

This experiment covers variants of B1. As to conditions: with axin1_rat Axin1, O70239.
Sequence of axin1_rat Axin1, O70239 (O70239 whole entry): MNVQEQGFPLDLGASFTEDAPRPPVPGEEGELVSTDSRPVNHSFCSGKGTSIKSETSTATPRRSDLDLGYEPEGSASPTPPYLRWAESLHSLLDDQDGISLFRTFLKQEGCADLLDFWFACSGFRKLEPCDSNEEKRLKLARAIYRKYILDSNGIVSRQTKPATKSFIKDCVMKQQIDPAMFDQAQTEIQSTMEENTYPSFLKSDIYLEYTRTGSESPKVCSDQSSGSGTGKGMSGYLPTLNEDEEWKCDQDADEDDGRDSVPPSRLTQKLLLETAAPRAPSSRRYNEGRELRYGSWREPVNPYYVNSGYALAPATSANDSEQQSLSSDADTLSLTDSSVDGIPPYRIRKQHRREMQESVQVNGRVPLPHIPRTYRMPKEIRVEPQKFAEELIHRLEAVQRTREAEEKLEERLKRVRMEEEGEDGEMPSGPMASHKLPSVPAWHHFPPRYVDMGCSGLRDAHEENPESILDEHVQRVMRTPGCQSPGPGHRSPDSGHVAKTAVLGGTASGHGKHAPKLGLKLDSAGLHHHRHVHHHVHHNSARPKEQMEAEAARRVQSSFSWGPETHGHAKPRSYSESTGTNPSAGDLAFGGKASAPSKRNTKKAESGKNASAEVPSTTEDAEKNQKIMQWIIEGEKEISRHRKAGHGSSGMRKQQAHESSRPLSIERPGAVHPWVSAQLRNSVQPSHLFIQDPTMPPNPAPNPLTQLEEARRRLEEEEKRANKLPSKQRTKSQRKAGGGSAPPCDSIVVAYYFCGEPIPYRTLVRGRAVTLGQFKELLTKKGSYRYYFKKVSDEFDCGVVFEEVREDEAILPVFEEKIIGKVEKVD
Take S1490A: the “effect of a mutation on the interaction” value is “decreasing interaction”.

Values taken from IntAct's records for PubMed 16890161.
